Earlier results on two molecules are cited in patent US20220184026A1, “COMPOSITIONS OF FULVIC ACID AND CANNABINOID AND USES THEREOF” (Omni Bioceutical Innovations, Inc., priority 2019, published 2022).

Like-named read-outs stand apart in the source and are kept apart here.

The subject of this series is chronic wounds. Set-up: key: N.S. = not statistically significant.

B1: transforming growth factor-β2 (protein, UniProt P61812 303-414, looked up)
Transforming growth factor …: ALDAAYCFRNVQDNCCLRPLYIDFKRDLGWKWIHEPKGYNANFCAGACPYLWSSDTQHSRVLSLYNTINPEASASPCCVSQDLEPLTILYYIGKTPKIEQLSNMIVKSCKCS
Take B1: the Results entry (Robson et al., venous wounds (n=36), 2.5 μg/cm^2 three times per week) was “N.S”.

B2: platelet-derived growth factor BB (protein, UniProt P01127 82-190, looked up)
Platelet-derived growth …: SLGSLTIAEPAMIAECKTRTEVFEISRRLIDRTNANFLVWPPCVEVQRCSGCCNNRNVQCRPTQVQLRPVQVRKIEIVRKKPIFKKATVTLEDHLACKCETVAAARPVT
Regarding B2, the Results result is, setting by setting: (Mustoe et al., pressure wounds (n=45), 1 and 3 μg/mL daily) “N.S”; (Robson et al., pressure wounds (n=20), 1, 10, and 100 μg/mL daily) “N.S”.
